Experimental data from the supplement of paper PMC10724198.
± gives the standard deviation of the averaged measurements.

Test system: Saccharomyces cerevisiae
Test: protein stability index of tFT-peptide fusion (C-terminal peptide) (PSI (0-1 scale)); higher = more stable (slower turnover)
Conditions: genetic background: wild type; temperature: 30 C
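Note: PSI is a weighted mean of sequencing reads over stability bins, variants kept only with over 10 reads, mCherry proximal and sfGFP distal, peptide attached via GGGS linker.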

Row | Sequence | protein stability index
1 | STCRCGGFRNGS | 0.762 ± 0.068
2 | STEHAPDLKSER | 0.695 ± 0.077
3 | STEIHIKLNAWT | 0.687 ± 0.082
4 | STGRLQLGNCLT | 0.635 ± 0.015
5 | STLSSRLSLPYR | 0.728 ± 0.07
6 | STPDIRYFPPWC | 0.706 ± 0.027
7 | STPLPPLSLPLF | 0.685 ± 0.016
8 | STQDIRTTKRVA | 0.681 ± 0.077
9 | STRTNPSYFTYQ | 0.675 ± 0.013
10 | STTIRTPSGMFR | 0.661 ± 0.0057
11 | STTPASLLGHVF | 0.6441 ± 0.0061
12 | STVLGPPLGLGT | 0.69 ± 0.054
13 | STVPSLVAGATF | 0.729 ± 0.11
14 | SVARGGGVVEWG | 0.705 ± 0.13
15 | SVATFDLHAGEW | 0.75 ± 0.01
16 | SVAVTGSTLVLI | 0.628 ± 0.036
17 | SVCLRASSCFRS | 0.648 ± 0.051
18 | SVCPQALNLPPH | 0.723 ± 0.043
19 | SVFSVVLSLSGS | 0.706 ± 0.051
20 | SVGGILWLMLEG | 0.677 ± 0.044
21 | SVIFSRSFCCPS | 0.639 ± 0.11
22 | SVLCRIGAGCAM | 0.629 ± 0.018
23 | SVLEGGRWGFTR | 0.758 ± 0.038
24 | SVLFDIGFSCRF | 0.808 ± 0.026
25 | SVLLRPPLLFHP | 0.722 ± 0.019
26 | SVLPELHAVPLF | 0.679 ± 0.008

Row | Sequence | protein stability index
27 | SVQWPITIEVWK | 0.631 ± 0.014
28 | SVRFPPTFTMTL | 0.701 ± 0.042
29 | SVSNSRCGRLML | 0.71 ± 0.046
30 | SVSPRAPPILPP | 0.723 ± 0.058
31 | SVSPRVSSLSPL | 0.671 ± 0.013
32 | SVSRTARELREV | 0.65902 ± 0.00035
33 | SVVGRLVGGFRW | 0.706 ± 0.021
34 | SVVSFIRRRSFL | 0.8656 ± 0.0084
35 | SVYLIRSLEALR | 0.679 ± 0.019
36 | SWFCSWVVRFFR | 0.691 ± 0.065
37 | SWLRPTCLDLYF | 0.76 ± 0.029
38 | SWSRAAYKGPWG | 0.702 ± 0.015
39 | SWTGDGWMWRRR | 0.658 ± 0.019
40 | SYESKPPLSWDS | 0.73 ± 0.11
41 | SYGIETRLKGKK | 0.63 ± 0.082
42 | SYKSLGLVEFRV | 0.712 ± 0.054
43 | SYSSRSCALRVI | 0.533 ± 0.043
44 | TAGAYSLSTGNH | 0.651 ± 0.024
45 | TALSPPVPTLPP | 0.7 ± 0.013
46 | TARPDKDYPRLA | 0.678 ± 0.013
47 | TARPPSPPSTRL | 0.732 ± 0.036
48 | TASLSPSHRFYS | 0.66863 ± 0.00061
49 | TATPQRQPHKSP | 0.706 ± 0.013
50 | TATRIPHTPIPL | 0.732 ± 0.037
51 | TAVIRASRFEEI | 0.672 ± 0.0055
52 | TAWVDSMVCMLL | 0.71 ± 0.034

Row | Sequence | protein stability index
53 | TCDSGSEDNVAA | 0.7053 ± 0.0032
54 | TCERGGQIKCRV | 0.657 ± 0.058
55 | TCLWVCARGFGG | 0.693 ± 0.021
56 | TCNWQGASSIIG | 0.6765 ± 0.0033
57 | TDFAVTKDFTEI | 0.683 ± 0.033
58 | TDTCLQDCLVFV | 0.546 ± 0.039
59 | TECGKVGGGGEA | 0.689 ± 0.062
60 | TECGVRRGLVGR | 0.651 ± 0.025
61 | TEKTEAKNCNTK | 0.697 ± 0.0089
62 | TFLFARLSFCKH | 0.613 ± 0.0071
63 | TFRADGYFFGRR | 0.637 ± 0.042
64 | TGCEVSINSCVE | 0.656 ± 0.046
65 | TGDFFGGLGTWS | 0.701 ± 0.016
66 | TGGESEPRDTIQ | 0.701 ± 0.017
67 | TGKQNRYVKKEK | 0.6955 ± 0.0031
68 | TGLLLGLFGCML | 0.648 ± 0.068
69 | TGLSFIRCLDFK | 0.688 ± 0.055
70 | TGMRRLPGEVCV | 0.581 ± 0.017
71 | TGQVLKYVVGSQ | 0.711 ± 0.055
72 | TGRLDFSIQYYR | 0.6986 ± 0.0069
73 | TGSIMYDLEVDK | 0.6795 ± 0.0039
74 | TGYEVAGWVNWC | 0.711 ± 0.018
75 | THGFKQLTTPLD | 0.676 ± 0.014
76 | TIHKRTLEGSYN | 0.65 ± 0.048
77 | TILKKKNRRNKE | 0.697 ± 0.024
78 | TILLNWSQVHME | 0.7 ± 0.016

Row | Sequence | protein stability index
79 | TKKKQKIKKNNS | 0.748 ± 0.042
80 | TKKKTINRTQKQ | 0.713 ± 0.043
81 | TKKKTKKKEQKE | 0.6627 ± 0.0027
82 | TKKKTTNKIIKI | 0.671 ± 0.054
83 | TKKNDKIRIQKS | 0.741 ± 0.043
84 | TKSWSLNGTYLL | 0.703 ± 0.034
85 | TKTKKKKNKKQE | 0.719 ± 0.067
86 | TKTNKALKTSKI | 0.699 ± 0.061
87 | TLARLISGKRLL | 0.648 ± 0.022
88 | TLEGRQKEMGIA | 0.691 ± 0.037
89 | TLEHRHPAIHPE | 0.723 ± 0.046
90 | TLGKPVGLARLS | 0.692 ± 0.035
91 | TLKMKHKPKKNL | 0.6583 ± 0.0035
92 | TLLLLLPPLPSF | 0.598 ± 0.023
93 | TLSPPPLSPSAP | 0.711 ± 0.013
94 | TLVLQFGRKRFG | 0.629 ± 0.013
95 | TLWLVSTAVLDC | 0.534 ± 0.036
96 | TNCNSHKLMAAL | 0.679 ± 0.011
97 | TNGYWVIACKKF | 0.672 ± 0.069
98 | TNTPSYSSRAEF | 0.733 ± 0.11
99 | TPGGPLLHSGFL | 0.755 ± 0.085
100 | TPGLVRVGSVSF | 0.708 ± 0.017
101 | TPLSSPHPSPPP | 0.595 ± 0.045
102 | TPMEKRQDANIN | 0.691 ± 0.015
103 | TPMPSCNHRPED | 0.655 ± 0.03
104 | TPPHNRERPTVQ | 0.657 ± 0.03

Row | Sequence | protein stability index
105 | TPPIPTTTSNFS | 0.734 ± 0.052
106 | TPPPASALPPSP | 0.705 ± 0.014
107 | TPPPRSFHRFPC | 0.694 ± 0.043
108 | TPPSPHPCPSPL | 0.797 ± 0.064
109 | TPPVPVPPPQLL | 0.748 ± 0.044
110 | TPTPGCYIASLT | 0.759 ± 0.21
111 | TQHKANQGLELI | 0.663 ± 0.008
112 | TQKESEKLNMSK | 0.667 ± 0.064
113 | TQNRCGGPSIAL | 0.634 ± 0.03
114 | TQRIEKEPTKKY | 0.703 ± 0.04
115 | TRCKLALEKLVG | 0.5986 ± 0.0015
116 | TRGMDYWLFTGD | 0.706 ± 0.0031
117 | TRGPKYTMVVKR | 0.672 ± 0.017
118 | TRKESNTIHNEQ | 0.688 ± 0.014
119 | TRRGAAAEDQEK | 0.697 ± 0.065
120 | TRRVPNSRTGTI | 0.74 ± 0.072
121 | TRSLPSSSSHSL | 0.727 ± 0.011
122 | TRTCGRRRAGGR | 0.633 ± 0.1
123 | TRTRARAIQTAT | 0.6462 ± 0.0054
124 | TRWRPPCAPSGS | 0.742 ± 0.076
125 | TSAPDSPVPSLP | 0.695 ± 0.015
126 | TSGAQSTRLGRE | 0.778 ± 0.11
127 | TSIAKRNGLLPG | 0.719 ± 0.13
128 | TSIDIEWYNSLM | 0.589 ± 0.026
129 | TSIREVPAPCSH | 0.756 ± 0.032
130 | TSKYQENKQKKR | 0.7095 ± 0.0057

Row | Sequence | protein stability index
131 | TSLIPPASPFAW | 0.643 ± 0.11
132 | TSPPSLLFAMAR | 0.693 ± 0.038
133 | TSPTPPPTPCRS | 0.6927 ± 0.0067
134 | TSRPLHEQTVSP | 0.677 ± 0.025
135 | TSRTLKPGIPPA | 0.7033 ± 0.0013
136 | TSSPVFPFPPTP | 0.745 ± 0.042
137 | TSSSDCRSPAPP | 0.744 ± 0.038
138 | TSTDLKKTNLQN | 0.645 ± 0.021
139 | TSTRTPTHRGPL | 0.762 ± 0.014
140 | TSYFRRRRSHSH | 0.753 ± 0.01
141 | TTCKTPPTYSFP | 0.71 ± 0.033
142 | TTCLYYDLQIPM | 0.672 ± 0.015
143 | TTIVGRIMRVMR | 0.706 ± 0.012
144 | TTKKKKGKKKYH | 0.681 ± 0.048
145 | TTQEPTPLAQEQ | 0.713 ± 0.024
146 | TTVAIPSINRYS | 0.671 ± 0.051
147 | TTWSPWLGVAET | 0.752 ± 0.07
148 | TVCGTLISFVEG | 0.694 ± 0.028
149 | TVERLGSRRGMA | 0.712 ± 0.022
150 | TVIWNSLRNCKF | 0.819 ± 0.15
151 | TVPFGLPVRPSP | 0.7464 ± 0.004
152 | TVPRSPPSPPLT | 0.7 ± 0.021
153 | TVSGPKTNLGQA | 0.71 ± 0.14
154 | TVYRQRRDAPTR | 0.727 ± 0.022
155 | TWANKRIGRRKE | 0.778 ± 0.039
156 | TWKARFFMDLGN | 0.672 ± 0.12

Row | Sequence | protein stability index
157 | TWVPYIIMKRER | 0.669 ± 0.019
158 | TYANKVKVHCGI | 0.651 ± 0.059
159 | VAAFGGGPTNGV | 0.724 ± 0.013
160 | VAAGGTVSPSSQ | 0.653 ± 0.057
161 | VAAKAHPLASMS | 0.617 ± 0.11
162 | VACFASRVLCRG | 0.503 ± 0.024
163 | VAGRGLGCPGRI | 0.632 ± 0.018
164 | VAGSGAGREAAY | 0.651 ± 0.0067
165 | VAGVLVFGKVGG | 0.694 ± 0.043
166 | VALFPVSFFSWL | 0.643 ± 0.098
167 | VALVCFAAGWLW | 0.507 ± 0.037
168 | VASSGRSPTPTR | 0.7551 ± 0.0015
169 | VAWAQPSGSKAC | 0.697 ± 0.046
170 | VCAAWKCRLDAG | 0.624 ± 0.0043
171 | VCAGGVFRLARG | 0.66 ± 0.12
172 | VCDIRSFALWYA | 0.8 ± 0.024
173 | VCGECGWRRVCL | 0.734 ± 0.028
174 | VCGGLGCSVVLE | 0.721 ± 0.078
175 | VCGGRQGGWGGW | 0.693 ± 0.0098
176 | VCGRTHRVLPTY | 0.641 ± 0.015
177 | VCIAKCKYNKTS | 0.606 ± 0.015
178 | VCLGAWGEGGRG | 0.664 ± 0.071
179 | VCMSLVRGEAGG | 0.657 ± 0.011
180 | VCNFCFLPASLV | 0.636 ± 0.021
181 | VCPPIVSSSWIL | 0.687 ± 0.035
182 | VCPVIGGGGVGV | 0.695 ± 0.0077

Row | Sequence | protein stability index
183 | VCRGFRHQCWYG | 0.665 ± 0.013
184 | VCRLLASCFWRL | 0.655 ± 0.035
185 | VCSLALSRPSTG | 0.6564 ± 0.0018
186 | VCTGYIAGGPVC | 0.659 ± 0.05
187 | VCTPCEFIRTQG | 0.697 ± 0.036
188 | VCVFFLFGYFRL | 0.562 ± 0.22
189 | VCVLGGVWGCRG | 0.66 ± 0.072
190 | VCVSRGPGTSDA | 0.685 ± 0.02
191 | VCWHSNCVGARH | 0.652 ± 0.01
192 | VDGLQYFMYISG | 0.68 ± 0.073
193 | VDGLSGVRPRGL | 0.69 ± 0.033
194 | VDLARWPVPEFW | 0.834 ± 0.022
195 | VDRAPFHLGRQG | 0.712 ± 0.043
196 | VEDGGSREAGEA | 0.627 ± 0.0073
197 | VEERGCCGEAEG | 0.72671 ± 0.00023
198 | VEGISKMTRINP | 0.8698 ± 0.0057
199 | VEGNLIYKKKYK | 0.656 ± 0.053
200 | VEHILQGVKYRR | 0.717 ± 0.098
201 | VESRVVGGGGDW | 0.683 ± 0.047
202 | VEVKEKLKLWSH | 0.691 ± 0.021
